Data on ten molecules can be found in article PMC12697855, “Distinct Phage‐Encoded Enzymes for Substitution of Deoxythymidine by Deoxyuridine in Phage Genomes” (Advanced Science, 2025).

For data set [1], the system named is T1, Dtt_PhiR1‐37.
T1 construct: gene Dtt; recombinant from codon-optimized synthetic gene in HMT plasmid, N-terminal His6-MBP tag, amylose column, E. coli
As to the kind of experiment: phosphomolybdate phosphate release, coupled inorganic pyrophosphatase IPP1. The note with it: 2 mM Mg2+, 50 mM Tris-HCl pH 7.5, room temperature; read-out: kinetic parameters. It is filed as biochemical, Yersinia phage phiR1-37. An excerpt: phosphomolybdate phosphate release, coupled inorganic pyrophosphatase IPP1 on Dtt_PhiR1‐37

For data set [2], the target named is T2, Dcd_PBS1 (Bacillus phage PBS1, UniProt A0A223LD31).
T2 construct: gene 112; recombinant from codon-optimized synthetic gene in HMT plasmid, N-terminal His6-MBP tag, amylose column, E. coli
T2 sequence (A0A223LD31 1-176): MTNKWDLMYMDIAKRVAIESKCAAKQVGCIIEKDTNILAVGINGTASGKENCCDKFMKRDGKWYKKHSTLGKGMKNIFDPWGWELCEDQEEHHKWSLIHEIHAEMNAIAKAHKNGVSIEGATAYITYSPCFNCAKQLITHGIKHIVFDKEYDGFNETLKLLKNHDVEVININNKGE
As to the kind of experiment: inhibition of dCTP deamination (details in supplement). In kind it is biochemical. As to conditions: inhibitor (negative regulation); also the reaction product.

Data set [3] concerns T3, Dcd_PhiR1‐37.
T3 construct: gene Dcd; recombinant from codon-optimized synthetic gene in HMT plasmid, N-terminal His6-MBP tag, amylose column, E. coli
As to the kind of experiment: UV absorbance at […] nm, deamination. As to conditions: Mg2+ (table; methods text says 2 mM Mn2+), 50 mM Tris-HCl pH 7.5, room temperature; read-out: kinetic parameters. It is filed as biochemical, Yersinia phage phiR1-37.

Substrate in data set [4]: Nc1ccn([C@H]2C[C@H](O)[C@@H](COP(=O)(O)O)O2)c(=O)n1
As to the kind of experiment: purified protein. It is filed as biochemical, Sulfurimonas gotlandica. As to conditions: 2 mM Mn2+, 50 mM Tris-HCl pH 7.5, room temperature.

Substrate in data set [5]: Nc1ccn([C@H]2C[C@H](O)[C@@H](COP(=O)(O)OP(=O)(O)O)O2)c(=O)n1
As to the kind of experiment: purified protein. In kind it is biochemical, Sulfurimonas gotlandica. The note with it: 2 mM Mn2+, 50 mM Tris-HCl pH 7.5, room temperature.

Substrate in data set [6]: Nc1ccn([C@H]2C[C@H](O)[C@@H](COP(=O)(O)OP(=O)(O)OP(=O)(O)O)O2)c(=O)n1
As to the kind of experiment: purified protein. It is filed as biochemical, Sulfurimonas gotlandica. As to conditions: 2 mM Mn2+, 50 mM Tris-HCl pH 7.5, room temperature.

Substrate in data set [7]: Nc1ccn([C@H]2C[C@H](O)[C@@H](COP(=O)(O)OP(=O)(O)OP(=O)(O)O)O2)c(=O)n1
As to the kind of experiment: purified protein. It is filed as biochemical, Bacillus phage PBS1. As to conditions: 2 mM Mn2+, 50 mM Tris-HCl pH 7.5, room temperature.

Substrate in data set [8]: Nc1ccn([C@H]2C[C@H](O)[C@@H](COP(=O)(O)O)O2)c(=O)n1
As to the kind of experiment: purified protein. In kind it is biochemical, Exiguobacterium artemiae. The note with it: Co2+ is best metal (methods text for kinetics says 2 mM Mn2+), 50 mM Tris-HCl pH 7.5, room temperature.

Substrate in data set [9]: Nc1ccn([C@H]2C[C@H](O)[C@@H](COP(=O)(O)OP(=O)(O)O)O2)c(=O)n1
As to the kind of experiment: purified protein. It is filed as biochemical, Exiguobacterium artemiae. The note with it: Co2+ is best metal (methods text for kinetics says 2 mM Mn2+), 50 mM Tris-HCl pH 7.5, room temperature.

Substrate in data set [10]: Nc1ccn([C@H]2C[C@H](O)[C@@H](COP(=O)(O)OP(=O)(O)OP(=O)(O)O)O2)c(=O)n1
As to the kind of experiment: purified protein. In kind it is biochemical, Exiguobacterium artemiae. The note with it: Co2+ is best metal (methods text for kinetics says 2 mM Mn2+), 50 mM Tris-HCl pH 7.5, room temperature.

Substrate in data set [11]: Cc1cn([C@H]2C[C@H](O)[C@@H](COP(=O)(O)O)O2)c(=O)[nH]c1=O
As to the kind of experiment: phosphomolybdate phosphate release. It is filed as biochemical, Bacteriophage DSS3_VP1. As to conditions: 2 mM Co2+, 50 mM Tris-HCl pH 7.5, room temperature. An excerpt:
(§1) phosphomolybdate phosphate release on Dtm_DSS3_VP1

Substrate in data set [12]: O=c1ccn([C@H]2C[C@H](O)[C@@H](COP(=O)(O)O)O2)c(=O)[nH]1
As to the kind of experiment: phosphomolybdate phosphate release. It is filed as biochemical, Bacteriophage DSS3_VP1. The note with it: 2 mM Co2+, 50 mM Tris-HCl pH 7.5, room temperature.
Description: as §1

Substrate in data set [13]: Cc1cn([C@H]2C[C@H](O)[C@@H](COP(=O)(O)O)O2)c(=O)[nH]c1=O
As to the kind of experiment: phosphomolybdate phosphate release. In kind it is biochemical, Bacillus phage PBS1. The note with it: Mg2+ (table; methods text says 2 mM Co2+), 50 mM Tris-HCl pH 7.5, room temperature. An excerpt: phosphomolybdate phosphate release on Dtm_PBS1

Substrate in data set [14]: Nc1ccn([C@H]2C[C@H](O)[C@@H](COP(=O)(O)O)O2)c(=O)n1
As to the kind of experiment: purified protein. It is filed as biochemical, Bacteriophage DSS3_VP1. The note with it: 2 mM Mn2+, 50 mM Tris-HCl pH 7.5, room temperature.

Substrate in data set [15]: Nc1ccn([C@H]2C[C@H](O)[C@@H](COP(=O)(O)OP(=O)(O)O)O2)c(=O)n1
As to the kind of experiment: purified protein. In kind it is biochemical, Bacteriophage DSS3_VP1. The note with it: 2 mM Mn2+, 50 mM Tris-HCl pH 7.5, room temperature.

Substrate in data set [16]: Nc1ccn([C@H]2C[C@H](O)[C@@H](COP(=O)(O)OP(=O)(O)OP(=O)(O)O)O2)c(=O)n1
As to the kind of experiment: purified protein. In kind it is biochemical, Bacteriophage DSS3_VP1. As to conditions: 2 mM Mn2+, 50 mM Tris-HCl pH 7.5, room temperature.

Take `Cc1cn([C@H]2C[C@H](O)[C@@H](COP(=O)(O)OP(=O)(O)OP(=O)(O)O)O2)c(=O)[nH]c1=O` [dTTP]: the Km in data set [1] was 108 ± 11 µM.

`O=c1ccn([C@H]2C[C@H](O)[C@@H](COP(=O)(O)OP(=O)(O)OP(=O)(O)O)O2)c(=O)[nH]1` [dUTP]: the Km in [1] came to 145 ± 16 µM. The “inhibition of dCTP deamination (details in supplement)” value in data set [2] is on record as “Bacillus phage PBS1 Dcd is negatively regulated by dUTP (Figure S9, Supporting Information)”.

`Nc1nc2c(ncn2[C@H]2C[C@H](O)[C@@H](COP(=O)(O)OP(=O)(O)OP(=O)(O)O)O2)c(=O)[nH]1` [dGTP]: the Km in data set [1] was found to be 440 ± 110 µM.

On to `Nc1ccn([C@H]2C[C@H](O)[C@@H](COP(=O)(O)OP(=O)(O)OP(=O)(O)O)O2)c(=O)n1` [dCTP], for which the Km in data set [3] is 117 ± 31 µM.

B1: S. gotlandica cytidine nucleotide deaminase (Sulfurimonas gotlandica GD1) (protein)
chain: MLSDQNFINIAQELATASKCVSKQVGAVIVKDGRILSTGYNGTPAGFTNCCDHWNGEYTPDHHEWSKTYEIHAEMNAIIWAARKGISIEGASIFVTLEPCSECSKNLIASGIKRIVYAKEYEHTHSDTISKFIKDNGVSIEQLAPKV
notes: recombinant from codon-optimized synthetic gene in HMT plasmid, N-terminal His6-MBP tag, amylose column, E. coli
For orientation: kcat means the maximal rate divided by the concentration of active sites. B1: the Km amounted to 661 ± 178 µM in [4], 271 ± 90 µM in data set [5] and 293 ± 88 µM in [6]. In addition, the kcat in data set [4] was 0.28 ± 0.05 s⁻¹; in data set [5], 0.5 ± 0.1 s⁻¹; in data set [6] it was 0.06 ± 0.01 s⁻¹.

B2: Dcd_PBS1 (Bacillus phage PBS1) (protein)
chain: MTNKWDLMYMDIAKRVAIESKCAAKQVGCIIEKDTNILAVGINGTASGKENCCDKFMKRDGKWYKKHSTLGKGMKNIFDPWGWELCEDQEEHHKWSLIHEIHAEMNAIAKAHKNGVSIEGATAYITYSPCFNCAKQLITHGIKHIVFDKEYDGFNETLKLLKNHDVEVININNKGE
notes: as for B1
On to B2, for which, in data set [7], the Km turned out to be 137 ± 23 µM and the kcat is 15.4 ± 1 s⁻¹.

B3: E. sibiricum cytidine nucleotide deaminase (Exiguobacterium artemiae 255-15) (protein)
chain: MMKKQHQWDTTWLLFARMMADRHSKCASKSVACVIVKDEKPISIGINGTPSQHVNCNEIYLKQDNILYKAEAERQQEKADALSIVHNGQVFYRCDNQEEHHEWSKMNEIHAEINALGKLAADSTSARHATAYVTHSPCHACSLALIASKIDRVVYSTGYEYGDGLTLMRQSEIEVLHRPLTEEYFLERIFDKDL
notes: as for B1
On to B3, for which the Km is reported as 415 ± 143 µM in data set [8], 179 ± 31 µM in [9] and 186 ± 35 µM in data set [10]. The kcat is 0.05 ± 0.01 s⁻¹ in [8], 21.2 ± 1.9 s⁻¹ in [9] and 0.9 ± 0.1 s⁻¹ in data set [10].

B4: Dtm_DSS3_VP1 (Bacteriophage DSS3_VP1) (protein)
chain: MCNEKIALGYELYTSGYVNRYHSHPHPHLRNAQDLTDAHSNRMVKLLYLFFPELAHRGTLVAYIVMHDAGESASGDSPFTAKIANPKLKEALDEVEGQRLAQFYGLFQNDLRIDLTQKEENVVKLLDLLESFLFQAIHAPGRMDEEHHLFQNIEKRARELEVYPEVRCMMMHALHRNNAATKGY
notes: as for B1
On to B4, for which, in data set [11], the Km is given as 22 ± 4 µM and the kcat stood at 3.1 ± 0.1 s⁻¹. Moreover, in [12], the Km is on record as 170 ± 15 µM and the kcat was determined as 1 ± 0.1 s⁻¹.

B5: Dtm_PBS1 (Bacillus phage PBS1) (protein)
chain: MFSIKEPFSIVTDCDEVLTDISPLWVHKIQQNADYFGKYFDLSKLEGLEFGTFEHYQTVLSRPEFHLNKWLRKENLVLSDEEEKELFERFYSLYDNDEFYEDCMPTKMCEGIYKLSLQKFVDKIYVVTRTSEGTKEGKRKFIETFLNSNKVEIIFVGKNEKKSDYIKNLKNVKMIVEDELSNINDIVENCNDGFEEVDIYIPSTGYNNKDIDGFNENLMKKGFNAVPYVIIERPETEEKAV
notes: recombinant from pCold TF, E. coli BL21(DE3), N-terminal His6-Trigger factor-TEV site tag, Ni-NTA; tag kept
As to B5, in [13], the Km is on record as 42 ± 8 µM and the kcat turned out to be 0.0317 ± 0.0017 s⁻¹.

B6: Dcd_DSS3_VP1 (Bacteriophage DSS3_VP1) (protein)
chain: MHSWDKRFMEMAELVASWSKDPRTKVGCVLADSKHRVLGVGYNGFPRGVNDRDDRYANREVKLAMVKHAEENAVFNAAKHDLSDAVAYVTLAPCSSCAGTLIQAGVRRVVFPEPDPEHMTRHYGNYELMLQMLSEARVLKSVITKEGVIK
notes: as for B1
For the molecule B6, the values for the Km in data set [14], in data set [15] and in data set [16] were 257 ± 55 µM, 144 ± 44 µM and 114 ± 22 µM, respectively. Also, the kcat in data set [14] turned out to be 1 ± 0.1 s⁻¹; in data set [15], 5.6 ± 0.8 s⁻¹; in data set [16] it was 8.9 ± 0.7 s⁻¹.
